Data as given in patent CN113087789A.

Legend:
[1] = molecular target: M13KO7辅助噬菌体 (丝状噬菌体pVIII蛋白) (M13KO7 helper phage (filamentous phage)) (UniProt P69541); test: indirect ELISA, plate coated with 1.0×10^9 pfu/mL M13KO7 helper phage, ascites antibody
[2] = molecular target: M13KO7辅助噬菌体 (丝状噬菌体pVIII蛋白) (M13KO7 helper phage (filamentous phage)) (UniProt P69541); test: indirect ELISA, plate coated with 1.0×10^9 pfu/mL M13KO7 helper phage, purified antibody (1.0 mg/mL stock)

UniProt P69541, sequence (P69541 24-73): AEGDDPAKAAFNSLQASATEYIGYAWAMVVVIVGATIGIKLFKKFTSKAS

B1: 丝状噬菌体pVIII蛋白单克隆抗体P8E4 (antibody, V domains shown)
VH: QIQLQQSGAELARPGASVRLSCKRSGYTFTTYWLQWLKQRAGQGLEWIGAIYPGNGDTRYFPNFKGQATLTADRSSSTRYLQLSSLASESSAVYYCASLLRTDFAMDYRGQGTSVTVSS
VL: DIVLTQSPASEAVSLGQRATISCRTSESVDTYAISFIHWYQQKPGWPPKLLIYRASNAESGIPARFAGSGSRPDFTLSIRPVEADDVATYYCQQSDKDPGSFGGGTKLEIK
B1 was tested, and the 效价 (titer, ascites) (fold dilution) [1] was 102000 and the 效价 (titer, purified antibody 1.0 mg/mL) (fold dilution) [2] was 6400.
